Data from paper PMC13163806.

What was measured:
[1] = test system: eIF3F; experiment: EMSA; details: 0.4-2.6 uM protein; fluorescein-12-UTP incorporated about every 20-25 nt; 150 mM NaCl, 20 mM HEPES (pH not stated), 1.5 mM MgCl2, 0.1 mM EDTA, 0.75 mM DTT, 10% glycerol; 2.3 nM labelled RNA; on ice 20 min; 1% native agarose gel
[2] = test system: PDCD4; experiment: EMSA; details: 0.2-1.2 uM protein; fluorescein-12-UTP incorporated about every 20-25 nt; 150 mM NaCl, 20 mM HEPES (pH not stated), 1.5 mM MgCl2, 0.1 mM EDTA, 0.75 mM DTT, 10% glycerol; 2.3 nM labelled RNA; on ice 20 min; 1% native agarose gel

**Q.** Which results are given for Bcl-xL IRES RNA?
**A.** Kd [1]: 800 nM; Kd [2]: 400 nM
